In publication PMC11589570, “Critical assessment of LC3/GABARAP ligands used for degrader development and ligandability of LC3/GABARAP binding pockets” (Nature Communications, 2024) one finds Ki data, which are given here for one substance.

Assay in all cases: FP
In assay [1] the target is GABARAPL2_(1-117) (human) (UniProt P60520).
The target of another assay is LC3A_(1-120) (human) (UniProt Q9H492).
Another assay concerns the target LC3C_(1-126) (human) (UniProt Q9BXW4).

GABARAPL2_(1-117) (human), sequence (P60520 whole entry): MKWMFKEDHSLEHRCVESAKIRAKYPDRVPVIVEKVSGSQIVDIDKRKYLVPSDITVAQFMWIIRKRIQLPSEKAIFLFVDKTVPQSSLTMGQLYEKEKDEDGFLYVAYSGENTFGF
LC3C_(1-126) (human), sequence (Q9BXW4 1-126): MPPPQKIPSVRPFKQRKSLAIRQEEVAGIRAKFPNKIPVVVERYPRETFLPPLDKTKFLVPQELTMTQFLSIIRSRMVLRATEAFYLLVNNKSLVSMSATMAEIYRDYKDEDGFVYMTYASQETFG

For orientation: Ki means a measure of affinity in units of concentration, obtained from inhibition or displacement. Read a low Ki as a stronger hold on the target. Turning to PCM1-LIR, the Ki was found to be 26.2 µM in assay [1], 179 µM in the assay with LC3A_(1-120) (human) and 84.3 µM with LC3C_(1-126) (human).
